Assay results as given in US20230212319A1, “NOVEL ANTIGEN BINDING DOMAINS AND SYNTHETIC ANTIGEN RECEPTORS INCORPORATING THE SAME” (University of Southern California, priority 2020, published 2023).

Tests used:
Format in all cases: cell-based
[1] = system: RAJI cells; test: JNG assay, co-culture with RAJI cells; details: JNG cells expressing construct, co-culture with Raji
Method in brief: (§1)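 Jurkat-NFAT-GFP (JNG) cells stably expressing SAR constructs via lentiviral transduction and puromycin/blasticidin selection were cocultured with target cells at E:T ~1:2 for ~4–18 h. NFAT-driven GFP was measured by FACS versus parental JNG cells; scores +/- to 5+ denote ~5–50% GFP-positive cells.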

[2] = system: RS;411; test: JNG assay, co-culture with RS;411 cells; details: co-culture with RS411
Procedure: Cellular supernatant is collected and assayed for the induction of cytokines (e.g., IL2).
JNG (Jurkat cells expressing EGFP under an NFAT promoter) were infected with lentiviral vectors encoding different single chain and multi-chain SARs by spinfection in the presence of 8 µg/ml of Polybrene® (Sigma, Catalog no. H9268). The Jurkat-NFAT-GFP cells are engineered in such a way that the IL-2 promoter, which carries NFAT binding sites, is cloned upstream of the GFP gene. These cells have been used to study signaling via TCR and CAR. The different SARs were stably expressed in Jurkat NFAT-GFP cells by lentiviral mediated gene transfer, followed by selection with puromycin or blasticidin. No drug selection was used in case the construct lacked an antibiotic resistance gene. The SAR-expressing Jurkat-NFAT-GFP cells were cocultured with the target cells at E:T ratio of approximately 1:2 for approximately 4 hours to 18 hours. When the interaction between SIRs and their target antigen results in activation of the NFAT pathway, GFP expression is induced. […] GFP expression was monitored by FACS analysis. The Jurkat-NFAT-GFP (parental) cells were used as control. The structure of different constructs can be determined based on their names. […] The sequence of the other constructs in the table can be similarly determined from their names and by referring to the different Tables of this disclosure that provide the names and SEQ ID NO of the different modules. Alternatively, the composition and modular architecture of the different SAR constructs can be determined from their sequences by bioinformatics tools, including using nucleic acid and amino acids homology searches. A SAR is considered positive in the assay in case the SAR expressing Jurkat-NFAT-GFP cells show greater % GFP positive cells when cultured with the target cell line as compared to parental Jurkat-NFAT-GFP cells. […] In general, the number +/-, +, 2+, 3+, 4+, 5+ refer to approximately 5%, 10%, 20%, 30%, 40% and 50% GFP positive cells. The % of GFP induction in the above assay is dependent not only the relative strength of the SAR but also, among other factors, on the relative level of expression of the SAR in the JNG cells and the relative level of expression of the target antigen in the target cell line. To control for the difference in gene transduction efficiency of the different SAR constructs, the experiment was conducted with JNG cells transduced with SAR constructs co-expressing a drug resistance gene (e.g., puromycin or PAC) followed by drug selection to generate a stable population of SAR-expressing cells. It is to be noted that the drug resistance gene (e.g., PAC) in the SAR constructs is optional and in vivo studies were conducted with SAR constructs lacking the PAC gene.

[3] = system: L363 cells; test: JNG assay, co-culture with L363 cells; details: co-culture with L363
Method in brief: as §1

B1: 22106 (protein)
chain: MALPVTALLLPLALLLHAARPDIQMTQSPSSLSASVGDRVTITCKASDHINNWLAWYQQKPGQAPKLLIYGATTLETGVPSRFSGSGSGTDYTLTISSLQPEDFATYYCQQSWNTPWTFGQGTKLEIKRLEDLKNVFPPEVAVFEPSKAEIAHTQKATLVCLATGFYPDHVELSWWVNGKEVHSGVCTDPQPLKEQPALNDSRYCLSSRLRVSATFWQNPRNHFRCQVQFYGLSENDEWTQDRAKPVTQIVSAEAWGRADCGITSASYHQGVLSATILYEILLGKATLYAVLVSALVLMAMVKRKDSRGRAKRSGSGATNFSLLKQAGDVEENPGPTSATMDWIWRILFLVGAATGAHSGPQVQLQESGGGLAQAGGSLRLSCAASGRTFSMGWFRQAPGKEREFVAAITYSGGSPYYASSVRGRFTISRDNAKNTVYLQMNSLKPEDTAVYYCAANPTYGSDWNAENWGQGTQVTVSSGSGGGGSGGGGSGGGGSFEQVQLQQPGAELVKPGASVKMSCKASGYAFSSYWINWMKQKPGQGLEWIGQIYPGDGDTNYNGKFKGRATLTADTSSSTAYMQLSSLTSEDSAVYFCARSITTVVGCAMDYWGQGTSVTVSSTRIQNPDPAVYQLRDSKSSDKSVCLFTDFDSQTNVSQSKDSDVYITDKCVLDMRSMDFKSNSAVAWSNKSDFACANAFNNSIIPEDTFFPSSDVPCDVKLVEKSFETDTNLNFQNLSVIGFRILLLKVAGFNLLMTLRLWSSRAKRSGSGVKQTLNFDLLKLAGDVESNPGPSRGHMTEYKPTVRLATRDDVPRAVRTLAAAFADYPATRHTVDPDRHIERVTELQELFLTRVGLDIGKVWVADDGAAVAVWTTPESVEAGAVFAEIGPRMAELSGSRLAAQQQMEGLLAPHRPKEPAWFLATVGVSPDHQGKGLGSAVVLPGVEAAERAGVPAFLETSAPRNLPFYERLGFTVTADVEVPEGPRTWCMTRKPGA
NFAT-GFP ASSAY: Raji [1]: 5+ (refer to approximately 5%, 10%, 20%, 30%, 40% and 50% GFP positive cells) | NFAT-GFP ASSAY: RS411 [2]: + (refer to approximately 5%, 10%, 20%, 30%, 40% and 50% GFP positive cells)

B2: 22012 (protein)
chain: MDWIWRILFLVGAATGAHSQLQLQESGPGLVKPSETLSLTCTVSGGSVSSSSYYWGWIRQPPGKRLELIGSIYYGGSTYFNPSLKTRVTISVDTSKNQFSLKLSSVTAADTAVYYCAGGDTYGPVGQWPSDYRGQGTLVTVSSLEDLKNVFPPEVAVFEPSEAEISHTQKATLVCLATGFYPDHVELSWWVNGKEVHSGVCTDPQPLKEQPALNDSRYCLSSRLRVSATFWQNPRNHFRCQVQFYGLSENDEWTQDRAKPVTQIVSAEAWGRADCGFTSESYQQGVLSATILYEILLGKATLYAVLVSALVLMAMVKRKDSRGRAKRSGSGATNFSLLKQAGDVEENPGPTSMDWIWRILFLVGAATGAHSFEVQLLESGGGLIQPGGSLRLSCAASGFTFSSHAMTWVRQAPGKGLEWVSAISGSGDYTHYADSVKGRFTISRDNSKNTVYLQMNSLRAEDSAVYYCAKDEDGGSLLGHRGQGTLVTVSSTRIQNPDPAVYQLRDSKSSDKSVCLFTDFDSQTNVSQSKDSDVYITDKCVLDMRSMDFKSNSAVAWSNKSDFACANAFNNSIIPEDTFFPSPESSCDVKLVEKSFETDTNLNFQNLSVIGFRILLLKVAGFNLLMTLRLWSSRAKRSGSGVKQTLNFDLLKLAGDVESNPGPSRGHMTEYKPTVRLATRDDVPRAVRTLAAAFADYPATRHTVDPDRHIERVTELQELFLTRVGLDIGKVWVADDGAAVAVWTTPESVEAGAVFAEIGPRMAELSGSRLAAQQQMEGLLAPHRPKEPAWFLATVGVSPDHQGKGLGSAVVLPGVEAAERAGVPAFLETSAPRNLPFYERLGFTVTADVEVPEGPRTWCMTRKPGA
NFAT-GFP ASSAY: L363 [3]: + (refer to approximately 5%, 10%, 20%, 30%, 40% and 50% GFP positive cells) | NFAT-GFP ASSAY: RS411 [2]: +/- (refer to approximately 5%, 10%, 20%, 30%, 40% and 50% GFP positive cells)

B3: 22141 (protein)
chain: MALPVTALLLPLALLLHAARPACEVQLLESGGGLIQPGGSLRLSCAASGFTFSSHAMTWVRQAPGKGLEWVSAISGSGDYTHYADSVKGRFTISRDNSKNTVYLQMNSLRAEDSAVYYCAKDEDGGSLLGHRGQGTLVTVSSGTGGGGSGGGGSGGGGSEFDIQMTQSPSSLSASVGDRVTITCKASDHINNWLAWYQQKPGQAPKLLIYGATTLETGVPSRFSGSGSGTDYTLTISSLQPEDFATYYCQQSWNTPWTFGQGTKLEIKRLEGQPKANPTVTLFPPSSEELQANKATLVCLISDFYPGAVTVAWKADGSPVKAGVETTKPSKQSNNKYAASSYLSLTPEQWKSHRSYSCQVTHEGSTVEKTVAPTECSPIKTDVITMDPKDNCSKDANDTLLLQLTNTSAYYMYLLLLLKSVVYFAIITCCLLRRTAFCCNGEKSRAKRSGSGATNFSLLKQAGDVEENPGPTSATMDWIWRILFLVGAATGAHSGPQVQLQESGGGLAQAGGSLRLSCAASGRTFSMGWFRQAPGKEREFVAAITYSGGSPYYASSVRGRFTISRDNAKNTVYLQMNSLKPEDTAVYYCAANPTYGSDWNAENWGQGTQVTVSSGSGGGGSGGGGSGGGGSFEQVQLQQPGAELVKPGASVKMSCKASGYAFSSYWINWMKQKPGQGLEWIGQIYPGDGDTNYNGKFKGRATLTADTSSSTAYMQLSSLTSEDSAVYFCARSITTVVGCAMDYWGQGTSVTVSSTRASTKGPSVFPLAPSSKSTSGGTAALGCLVKDYFPEPVTVSWNSGALTSGVHTFPAVLQSSGLYSLSSVVTVPSSSLGTQTYICNVNHKPSNTKVDKRVEPKSCEVKTDSTDHVKPKETENTKQPSKSCHKPKAIVHTEKVNMMSLTVLGLRMLFAKTVAVNFLLTAKLFFLRAKRSGSGVKQTLNFDLLKLAGDVESNPGPSRAHMTEYKPTVRLATRDDVPRAVRTLAAAFADYPATRHTVDPDRHIERVTELQELFLTRVGLDIGKVWVADDGAAVAVWTTPESVEAGAVFAEIGPRMAELSGSRLAAQQQMEGLLAPHRPKEPAWFLATVGVSPDHQGKGLGSAVVLPGVEAAERAGVPAFLETSAPRNLPFYERLGFTVTADVEVPEGPRTWCMTRKPGA
NFAT-GFP ASSAY: Raji [1]: 4+ (refer to approximately 5%, 10%, 20%, 30%, 40% and 50% GFP positive cells) | NFAT-GFP ASSAY: RS411 [2]: 4+ (refer to approximately 5%, 10%, 20%, 30%, 40% and 50% GFP positive cells)

B4: 22139 (protein)
chain: MALPVTALLLPLALLLHAARPACEVQLLESGGGLIQPGGSLRLSCAASGFTFSSHAMTWVRQAPGKGLEWVSAISGSGDYTHYADSVKGRFTISRDNSKNTVYLQMNSLRAEDSAVYYCAKDEDGGSLLGHRGQGTLVTVSSGTGGGGSGGGGSGGGGSEFDIQMTQSPSSLSASVGDRVTITCKASDHINNWLAWYQQKPGQAPKLLIYGATTLETGVPSRFSGSGSGTDYTLTISSLQPEDFATYYCQQSWNTPWTFGQGTKLEIKRLEADVSPKPTIFLPSIAETKLQKAGTYLCLLEKFFPDVIKIHWQEKKSNTILGSQEGNTMKTNDTYMKFSWLTVPEKSLDKEHRCIVRHENNKNGVDQEIIFPPIKTDVITMDPKDNCSKDANDTLLLQLTNTSAYYMYLLLLLKSVVYFAIITCCLLRRTAFCCNGEKSRAKRSGSGATNFSLLKQAGDVEENPGPTSMDWIWRILFLVGAATGAHSGPQVQLQESGGGLAQAGGSLRLSCAASGRTFSMGWFRQAPGKEREFVAAITYSGGSPYYASSVRGRFTISRDNAKNTVYLQMNSLKPEDTAVYYCAANPTYGSDWNAENWGQGTQVTVSSGSGGGGSGGGGSGGGGSFEQVQLQQPGAELVKPGASVKMSCKASGYAFSSYWINWMKQKPGQGLEWIGQIYPGDGDTNYNGKFKGRATLTADTSSSTAYMQLSSLTSEDSAVYFCARSITTVVGCAMDYWGQGTSVTVSSTRPHTKPSVFVMKNGTNVACLVKEFYPKDIRINLVSSKKITEFDPAIVISPSGKYNAVKLGKYEDSNSVTCSVQHDNKTVHSTDFEVKTDSTDHVKPKETENTKQPSKSCHKPKAIVHTEKVNMMSLTVLGLRMLFAKTVAVNFLLTAKLFFLRAKRSGSGVKQTLNFDLLKLAGDVESNPGPSRGHMTEYKPTVRLATRDDVPRAVRTLAAAFADYPATRHTVDPDRHIERVTELQELFLTRVGLDIGKVWVADDGAAVAVWTTPESVEAGAVFAEIGPRMAELSGSRLAAQQQMEGLLAPHRPKEPAWFLATVGVSPDHQGKGLGSAVVLPGVEAAERAGVPAFLETSAPRNLPFYERLGFTVTADVEVPEGPRTWCMTRKPGA
NFAT-GFP ASSAY: Raji [1]: 2+ (refer to approximately 5%, 10%, 20%, 30%, 40% and 50% GFP positive cells) | NFAT-GFP ASSAY: RS411 [2]: 2+ (refer to approximately 5%, 10%, 20%, 30%, 40% and 50% GFP positive cells)
